Experimental data reported in US20170224836A1 (Novartis, published 2017).
Where a chain is given by its changes, count along the chain named.

B1: NOV0690-SMCC-DM1 (antibody, human IgG1, lambda, V domains shown)
VH: QVQLLESGGGLVQPGGSLRLSCAASGFTFSDHAIDWVRQAPGKGLEWVSVIAGDGSITYYADSVKGRFTISRDNSKNTLYLQMNSLRAEDTAVYYCARDTGVYREYMDVWGQGTLVTVSS
VL: DIELTQPPSVSVSPGQTASITCSGDAIGTKFAHWYQQKPGQAPVLVIYYDHERPSGIPERFSGSNSGNTATLTISGTQAEDEADYYCYSRASSNLVFGGGTKLTVLG
modifications: SMCC-DM1 on primary amines, sites not stated
B2: NOV0670-SMCC-DM1 (antibody, human IgG1, lambda, V domains shown)
VH: QVQLVQSGAEVKKPGSSVKVSCKASGGTFSSYAISWVRQAPGQGLEWMGGIIPIFGTANYAQKFQGRVTITADESTSTAYMELSSLRSEDTAVYYCARKFPGRGPFAYWGQGTLVTVSS
VL: DIVLTQPPSVSGAPGQRVTISCSGSSSNIGSQYVYWYQQLPGTAPKLLIYYNSERPSGMPDRFSGSKSGTSASLAITGLQAEDEADYYCQTWDASSQSFVFGGGTKLTVLG
modifications: SMCC-DM1 on primary amines, sites not stated
B3: NOV0685-SMCC-DM1 (antibody, human IgG1, lambda, V domains shown)
VH: QVQLQQSGPGLVKPSQTLSLTCAISGDSVSGNSAAWNWIRQSPSRGLEWLGIIYYRSKWYNDYAVSVKSRITINPDTSKNQFSLQLNSVTPEDTAVYYCARSSYSGGFDYWGQGTLVTVSS
VL: DIVLTQPPSVSGAPGQRVTISCSGSSSNIGSYYVSWYQQLPGTAPKLLIYYNTKRPSGVPDRFSGSKSGTSASLAITGLQAEDEADYYCQSWDKLGKGYVFGGGTKLTVLG
modifications: SMCC-DM1 on primary amines, sites not stated
B4: NOV0693-SMCC-DM1 (antibody, human IgG1, kappa, V domains shown)
VH: QVQLLESGGGLVQPGGSLRLSCAASGFTFSSYALHWVRQAPGKGLEWVSYIFYDSSSTYYADSVKGRFTISRDNSKNTLYLQMNSLRAEDTAVYYCARFLYSAYGVANWGQGTLVTVSS
VL: DIQMTQSPSSLSASVGDRVTITCRASQSISFYLAWYQQKPGKAPKLLIYGASTLQSGVPSRFSGSGSGTDFTLTISSLQPEDFATYYCHQYSYWLRTFGQGTKVEIKR
modifications: SMCC-DM1 on primary amines, sites not stated
B5: NOV0695-SMCC-DM1 (antibody, human IgG1, kappa, V domains shown)
VH: QVQLQQSGPGLVKPSQTLSLTCAISGDSVSSNSAAWNWIRQSPSRGLEWLGRIYYRSKWYNDYAVSVKSRITINPDTSKNQFSLQLNSVTPEDTAVYYCARERSYRDYFDYWGQGTLVTVSS
VL: DIQMTQSPSSLSASVGDRVTITCRASQGIFTYLNWYQQKPGKAPKLLISAASTLQSGVPSRFSGSGSGTDFTLTISSLQPEDFATYYCQQYYSTSLTFGQGTKVEIKR
modifications: SMCC-DM1 on primary amines, sites not stated
B6: NOV0705-SMCC-DM1 (antibody, human IgG1, lambda, V domains shown)
VH: QVQLVQSGAEVKKPGESLKISCKGSGYSFTNYWIGWVRQMPGKGLEWMGFIDPGVSYTRYSPSFQGQVTISADKSISTAYLQWSSLKASDTAMYYCARVLAHSTEYNWPAFWGQGTLVTVSS
VL: DIVLTQPPSVSGAPGQRVTISCSGSSSNIGLDYVNWYQQLPGTAPKLLIYRNKQRPSGVPDRFSGSKSGTSASLAITGLQAEDEADYYCQAWAGRTNYVVFGGGTKLTVLG
modifications: SMCC-DM1 on primary amines, sites not stated
B7: NOV0672-SMCC-DM1 (antibody, human IgG1, lambda, V domains shown)
VH: QVQLLESGGGLVQPGGSLRLSCAASGFTFNTYGIHWVRQAPGKGLEWVSYIHYSGSSTYYADSVKGRFTISRDNSKNTLYLQMNSLRAEDTAVYYCARHAYGYMDFWGQGTLVTVSS
VL: DIALTQPASVSGSPGQSITISCTGTSSDVGAYNYVSWYQQHPGKAPKLMIYGVSKRPSGVSNRFSGSKSGNTASLTISGLQAEDEADYYCQSYDHLLHVVFGGGTKLTVLG
modifications: SMCC-DM1 on primary amines, sites not stated
B8: NOV0691-SMCC-DM1 (antibody, human IgG1, lambda, V domains shown)
VH: QVQLVESGGGLVKPGGSLRLSCAASGFTFSSYALNWVRQAPGKGLEWVGRIKSKTYGGSTDYAAPVKGRFTISRDDSKNTLYLQMNSLKTEDTAVYYCARDRGGYVGFDSWGQGTLVTVSS
VL: B7 VL with A31R, Y34F, G52R, K55N, Y93W, D94T, H95T, L96Y, L97S, H98N
modifications: SMCC-DM1 on primary amines, sites not stated
B9: NOV0692-SMCC-DM1 (antibody, human IgG1, lambda, V domains shown)
VH: QVQLVESGGGLVKPGGSLRLSCAASGFTFSRYWMDWVRQAPGKGLEWVGRIKSKANGGITDYAAPVKGRFTISRDDSKNTLYLQMNSLKTEDTAVYYCARGMTFLGIWGQGTLVTVSS
VL: DIELTQPPSVSVSPGQTASITCSGDSIGSKYAQWYQQKPGQAPVLVIYYNSERPSGIPERFSGSNSGNTATLTISGTQAEDEADYYCQSWDGQSTIRVFGGGTKLTVLG
modifications: SMCC-DM1 on primary amines, sites not stated
B10: NOV0689-SMCC-DM1 (antibody, human IgG1, lambda, V domains shown)
VH: QVQLLESGGGLVQPGGSLRLSCAASGFTFSSFAMNWVRQAPGKGLEWVSVISSSGSNTNYADSVKGRFTISRDNSKNTLYLQMNSLRAEDTAVYYCARPSYFQAMDYWGQGTLVTVSS
VL: DIVLTQPPSVSGAPGQRVTISCSGSSSNIGSNFVSWYQQLPGTAPKLLIYDNSNRPSGVPDRFSGSKSGTSASLAITGLQAEDEADYYCSSYDSFDHSWVFGGGTKLTVLG
modifications: SMCC-DM1 on primary amines, sites not stated
B11: NOV0674-SMCC-DM1 (antibody, human IgG1, lambda, V domains shown)
VH: QVQLLESGGGLVQPGGSLRLSCAASGFTFSSYAMTWVRQAPGKGLEWVSGISGGGSNTYYADSVKGRFTISRDNSKNTLYLQMNSLRAEDTAVYYCARGGGQYFDYWGQGTLVTVSS
VL: DIVLTQPPSVSGAPGQRVTISCSGSSSNIGYNYVSWYQQLPGTAPKLLIYRDNQRPSGVPDRFSGSKSGTSASLAITGLQAEDEADYYCAAWTSGSIGWVFGGGTKLTVLG
modifications: SMCC-DM1 on primary amines, sites not stated
B12: NOV0682-SMCC-DM1 (antibody, human IgG1, kappa, V domains shown)
VH: QVQLVESGGGLVKPGGSLRLSCAASGFTFSSYAISWVRQAPGKGLEWVGFIKSNADGYTTNYAAPVKGRFTISRDDSKNTLYLQMNSLKTEDTAVYYCARIRYFRNWDYWGQGTLVTVSS
VL: DIQMTQSPSSLSASVGDRVTITCRASQTINSYLNWYQQKPGKAPKLLIYRASNLQSGVPSRFSGSGSGTDFTLTISSLQPEDFATYYCQQGDSSWTFGQGTKVEIKR
modifications: SMCC-DM1 on primary amines, sites not stated

Target: T1, human CDH6 on cells (human, UniProt P55285 54-790)
T1 sequence: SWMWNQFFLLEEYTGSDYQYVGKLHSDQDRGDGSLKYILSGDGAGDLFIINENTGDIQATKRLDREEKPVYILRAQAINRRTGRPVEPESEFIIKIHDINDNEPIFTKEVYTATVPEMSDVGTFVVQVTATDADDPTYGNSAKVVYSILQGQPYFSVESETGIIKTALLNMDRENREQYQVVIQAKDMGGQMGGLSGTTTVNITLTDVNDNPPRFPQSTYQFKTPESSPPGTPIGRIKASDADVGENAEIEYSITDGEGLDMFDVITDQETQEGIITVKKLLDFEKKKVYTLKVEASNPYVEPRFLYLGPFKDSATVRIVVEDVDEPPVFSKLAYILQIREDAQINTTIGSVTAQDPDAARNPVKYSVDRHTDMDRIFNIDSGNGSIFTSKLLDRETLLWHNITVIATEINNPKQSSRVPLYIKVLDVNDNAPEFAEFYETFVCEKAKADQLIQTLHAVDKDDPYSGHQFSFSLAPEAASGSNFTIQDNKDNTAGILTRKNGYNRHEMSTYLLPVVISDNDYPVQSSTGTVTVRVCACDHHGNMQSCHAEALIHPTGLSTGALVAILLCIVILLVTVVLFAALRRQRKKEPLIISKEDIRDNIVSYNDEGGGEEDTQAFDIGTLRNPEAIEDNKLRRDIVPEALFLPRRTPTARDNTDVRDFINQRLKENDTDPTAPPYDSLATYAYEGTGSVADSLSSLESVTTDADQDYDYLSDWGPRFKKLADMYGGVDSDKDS
Assay: cell-based or functional assay

Binder	percent inhibition at 1.22 nM ADC, JHOS4 cells [%]	percent inhibition at 1.22 nM ADC, KNS42 cells [%]	percent inhibition at 1.22 nM ADC, NCIH661 cells [%]	percent inhibition at 1.22 nM ADC, OVCAR3 cells [%]	percent inhibition at 1.22 nM ADC, SNU8 cells [%]
B1	51	56.8	14.6	84.8	18.4
B2	-27.9	-18.6	5.14	-30	-15.6
B3	-14.7	-14.7	2.08	-20.6	-0.1
B4	58.1	15.2	25.9	85.7	35.6
B5	66.9	66.3	18.7	89	21.6
B6	40.4	-13.3	-3.15	68.6	6.4
B7	-23	-12.3	-6.14	-16.2	-10.9
B8	-14.4	-9.23	-10.5	-1.5	-2.56
B9	62.3	57.3	14.8	88	15.7
B10	3.63	-3.11	-0.53	7.21	10.3
B11	-11.9	-6.82	3.9	-10.3	-1.42
B12	33.9	23.8	16.4	61.8	10.8
